Target: CD40 protein displayed on cell surface (UniProt P25942)
Experiment: cell-based or functional assay

Sequence of CD40 protein displayed on cell surface (P25942 21-277 limits assumed): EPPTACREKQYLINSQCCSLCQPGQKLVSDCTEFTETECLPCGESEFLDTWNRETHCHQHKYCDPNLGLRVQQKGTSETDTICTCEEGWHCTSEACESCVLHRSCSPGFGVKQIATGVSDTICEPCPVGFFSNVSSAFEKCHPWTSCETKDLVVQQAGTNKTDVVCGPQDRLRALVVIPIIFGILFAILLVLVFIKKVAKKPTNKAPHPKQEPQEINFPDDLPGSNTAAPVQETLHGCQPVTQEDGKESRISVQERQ

CP-870893 (antibody)
EC50 in activating MoDC assessed by CD86 expression: 4.2 nM | EC50 in activating monocyte derived dendritic cell (MoDC) assessed by CD80 expression: 5 nM

— patent US20220089758A1
